Results: paper doi:10.1101/2022.07.31.502239

Biological target: T1, mmLRRC8A with C-terminal EGFP and HA-tag (Mus musculus), Q80WG5
T1 chain: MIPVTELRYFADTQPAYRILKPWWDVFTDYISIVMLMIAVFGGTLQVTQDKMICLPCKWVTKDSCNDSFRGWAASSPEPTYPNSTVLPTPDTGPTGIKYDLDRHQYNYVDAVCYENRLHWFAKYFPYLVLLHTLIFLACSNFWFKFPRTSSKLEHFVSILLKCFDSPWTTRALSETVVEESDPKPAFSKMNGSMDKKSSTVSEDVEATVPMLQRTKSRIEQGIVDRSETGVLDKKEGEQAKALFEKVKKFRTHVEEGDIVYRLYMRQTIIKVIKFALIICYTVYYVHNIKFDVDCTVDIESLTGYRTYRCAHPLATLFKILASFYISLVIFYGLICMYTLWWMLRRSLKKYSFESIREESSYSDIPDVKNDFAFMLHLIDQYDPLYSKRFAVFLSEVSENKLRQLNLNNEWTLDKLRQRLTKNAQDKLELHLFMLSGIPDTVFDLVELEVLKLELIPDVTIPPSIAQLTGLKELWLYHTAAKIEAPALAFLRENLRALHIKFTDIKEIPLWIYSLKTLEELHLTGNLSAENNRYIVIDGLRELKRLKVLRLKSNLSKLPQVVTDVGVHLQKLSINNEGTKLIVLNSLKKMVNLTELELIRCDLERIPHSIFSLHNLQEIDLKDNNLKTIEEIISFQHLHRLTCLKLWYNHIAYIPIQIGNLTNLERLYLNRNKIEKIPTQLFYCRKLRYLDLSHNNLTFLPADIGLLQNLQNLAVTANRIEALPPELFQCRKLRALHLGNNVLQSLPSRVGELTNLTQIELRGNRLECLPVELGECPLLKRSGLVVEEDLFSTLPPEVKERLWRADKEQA
Test: single molecule pulldown with stepwise photobleaching subunit counting
Conditions: remark: other sources report otherwise

B1: mmLRRC8A with C-terminal EGFP and HA-tag, Q80WG5 1-810 (natural protein)
chain: T1 chain
- stoichiometry N: 6
